5 molecules from paper PMC2278140, “Regulation of the cd38 promoter in human airway smooth muscle cells by TNF-α and dexamethasone” can be followed below.

Holding throughout (details): protein: commercial; chain copies: 2; label: 32P 5' end; blunt
In data set [1] the target is T1, glucocorticoid receptor (GR) (human, UniProt P04150 1-777). In words: EMSA; anti-GR supershift; 20% glycerol, 5 mM MgCl2, 2.5 mM EDTA, 2.5 mM DTT, 250 mM NaCl, 50 mM Tris-HCl pH 7.5, 0.25 mg/ml poly(dI-dC), room temperature 30 min; 0.4 pmol probe in 10 μl, 5 μg extract or 1 μg GR.
T1 sequence (P04150 whole entry): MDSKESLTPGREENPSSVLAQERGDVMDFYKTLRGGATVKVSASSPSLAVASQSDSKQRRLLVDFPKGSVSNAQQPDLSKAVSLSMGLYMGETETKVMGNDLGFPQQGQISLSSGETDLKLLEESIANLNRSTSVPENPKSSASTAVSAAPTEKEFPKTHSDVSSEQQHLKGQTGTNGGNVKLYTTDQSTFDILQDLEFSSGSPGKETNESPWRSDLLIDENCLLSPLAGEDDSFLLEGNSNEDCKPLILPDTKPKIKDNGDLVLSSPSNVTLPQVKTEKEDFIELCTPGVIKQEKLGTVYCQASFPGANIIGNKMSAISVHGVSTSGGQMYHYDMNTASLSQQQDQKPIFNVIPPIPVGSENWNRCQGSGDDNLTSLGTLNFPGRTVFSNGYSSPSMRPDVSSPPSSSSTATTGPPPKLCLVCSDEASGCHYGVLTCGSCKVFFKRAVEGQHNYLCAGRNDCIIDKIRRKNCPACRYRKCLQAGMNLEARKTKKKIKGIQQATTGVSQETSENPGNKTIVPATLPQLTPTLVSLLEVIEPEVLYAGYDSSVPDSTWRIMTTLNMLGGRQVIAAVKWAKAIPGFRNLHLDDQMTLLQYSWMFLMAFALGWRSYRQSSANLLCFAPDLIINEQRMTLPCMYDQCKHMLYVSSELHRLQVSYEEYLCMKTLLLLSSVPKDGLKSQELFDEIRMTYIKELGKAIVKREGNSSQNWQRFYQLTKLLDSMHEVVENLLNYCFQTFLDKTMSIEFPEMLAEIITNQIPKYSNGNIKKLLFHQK
In data set [2] the target is T1, glucocorticoid receptor (GR). In words: competition; excess unlabeled self vs labeled GRE4; 20% glycerol, 5 mM MgCl2, 2.5 mM EDTA, 2.5 mM DTT, 250 mM NaCl, 50 mM Tris-HCl pH 7.5, 0.25 mg/ml poly(dI-dC), room temperature 30 min; 0.4 pmol probe in 10 μl, 5 μg extract or 1 μg GR.
The target is the same in data set [3]. In words: EMSA; 20% glycerol, 5 mM MgCl2, 2.5 mM EDTA, 2.5 mM DTT, 250 mM NaCl, 50 mM Tris-HCl pH 7.5, 0.25 mg/ml poly(dI-dC), room temperature 30 min; 0.4 pmol probe in 10 μl, 5 μg extract or 1 μg GR.
The target is the same in data set [4]. Put plainly: competition; excess unlabeled self vs labeled GRE3; 20% glycerol, 5 mM MgCl2, 2.5 mM EDTA, 2.5 mM DTT, 250 mM NaCl, 50 mM Tris-HCl pH 7.5, 0.25 mg/ml poly(dI-dC), room temperature 30 min; 0.4 pmol probe in 10 μl, 5 μg extract or 1 μg GR.
Data set [5] shares this target. Put plainly: competition; excess unlabeled vs labeled GRE consensus; 20% glycerol, 5 mM MgCl2, 2.5 mM EDTA, 2.5 mM DTT, 250 mM NaCl, 50 mM Tris-HCl pH 7.5, 0.25 mg/ml poly(dI-dC), room temperature 30 min; 0.4 pmol probe in 10 μl, 5 μg extract or 1 μg GR.

B1: GRE consensus (dsDNA)
DNA 1: TAGAGGATCTGTACAGGATGTTCTAGAT
DNA 2: ATCTAGAACATCCTGTACAGATCCTCTA
Regarding B1, the binding result in data set [1] is listed as “binds”.

B2: GRE4 (dsDNA)
DNA 1: GCCATTGTAACTGTTCTCCATCCTTATC
DNA 2: GATAAGGATGGAGAACAGTTACAATGGC
On to B2, for which the binding result in data set [2] is on record as “binds”.

B3: GRE1 (dsDNA)
DNA 1: AATGTCACAGATGTTCTCTTAATAAAGA
DNA 2: TCTTTATTAAGAGAACATCTGTGACATT
Regarding B3, in data set [3], the binding result is “binds”.

B4: GRE3 (dsDNA)
DNA 1: AAGCACTGCCATGTTCTCACTTATAAGT
DNA 2: ACTTATAAGTGAGAACATGGCAGTGCTT
On to B4, for which the binding result in data set [4] is “binds”.

B5: GRE2 (dsDNA)
DNA 1: TTCCGAACTTCTGTTCTGTTTCCCTCAA
DNA 2: TTGAGGGAAACAGAACAGAAGTTCGGAA
In the case of B5, the binding result in data set [5] was “no binding”.
